Measurements: the supplement of paper PMC9233669
Fewer inactive variants are shown than the library holds.

What was measured:
biotinyl-Phe-oxazolone = assay: self-aminoacylation, catalytic enhancement (BFO) (fold over background); higher = more active; k-Seq, kA / k0A0; sequences stand for … in GGGAAUGGAUCCACAUCUACGAAUUC…UUCACUGCAGACUUGACGAAGCUG
How it was run: (§1)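 Each biotinyl-aminoacyl-oxazolone, at 2–1250 μM, was incubated with mutagenized RNA pools (0.43 μM) carrying a 21-nt variable region. The 50 μL reactions contained HEPES/NaCl/KCl/MgCl2/CaCl2 buffer with 5% acetonitrile at pH 6.9–7.0 and ran for 90 minutes at room temperature. After streptavidin capture, RNA was measured by qPCR in triplicate and by Illumina sequencing, and catalytic enhancement was calculated as median kA over the uncatalyzed rate from a pseudo-first-order fit of per-sequence fraction reacted.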

biotinyl-Ile-oxazolone = assay: self-aminoacylation, catalytic enhancement (BIO) (fold over background); higher = more active; k-Seq, kA / k0A0; sequences stand for … in GGGAAUGGAUCCACAUCUACGAAUUC…UUCACUGCAGACUUGACGAAGCUG
How it was run: as §1

biotinyl-Met-oxazolone = assay: self-aminoacylation, catalytic enhancement (BMO) (fold over background); higher = more active; k-Seq, kA / k0A0; sequences stand for … in GGGAAUGGAUCCACAUCUACGAAUUC…UUCACUGCAGACUUGACGAAGCUG
How it was run: as §1

biotinyl-Val-oxazolone = assay: self-aminoacylation, catalytic enhancement (BVO) (fold over background); higher = more active; k-Seq, kA / k0A0; sequences stand for … in GGGAAUGGAUCCACAUCUACGAAUUC…UUCACUGCAGACUUGACGAAGCUG
How it was run: as §1

biotinyl-Leu-oxazolone = assay: self-aminoacylation, catalytic enhancement (BLO) (fold over background); higher = more active; k-Seq, kA / k0A0; sequences stand for … in GGGAAUGGAUCCACAUCUACGAAUUC…UUCACUGCAGACUUGACGAAGCUG
How it was run: as §1

biotinyl-Trp-oxazolone = assay: self-aminoacylation, catalytic enhancement (BWO) (fold over background); higher = more active; k-Seq, kA / k0A0; sequences stand for … in GGGAAUGGAUCCACAUCUACGAAUUC…UUCACUGCAGACUUGACGAAGCUG
How it was run: as §1

| Sequence | self-aminoacylation (biotinyl-Phe-oxazolone) | self-aminoacylation (biotinyl-Ile-oxazolone) | self-aminoacylation (biotinyl-Met-oxazolone) | self-aminoacylation (biotinyl-Val-oxazolone) | self-aminoacylation (biotinyl-Leu-oxazolone) | self-aminoacylation (biotinyl-Trp-oxazolone) |
| --- | --- | --- | --- | --- | --- | --- |
| CCACACUUCAUGGAAUCGGUC [Fam1B.1 aminoacylation ribozyme variant] | 0.928 | 0.858 | 0.836 | 1.1 | 0.946 | 0.598 |
| CCACACUUCCAGCAAUCGGAC [Fam1B.1 aminoacylation ribozyme variant] | 0.784 | 0.999 | 0.797 | 1.1 | 0.592 | 0.846 |
| CCACACUUCCAGCAAUCGGUC [Fam1B.1 aminoacylation ribozyme variant] | 1.03 | 1.14 | 0.882 | 1.25 | 0.9 | 0.872 |
| CCACACUUCCAGCAAUCGGUG [Fam1B.1 aminoacylation ribozyme variant] | 18.9 | 2.74 | 3.83 | 3.05 | 4.82 | 3.13 |
| CCACACUUCCAGCAAUCGUUC [Fam1B.1 aminoacylation ribozyme variant] | 1.22 | 1.09 | 0.642 | 1.05 | 0.64 | 0.75 |
| CCACACUUCCAGCAGUCGGUC [Fam1B.1 aminoacylation ribozyme variant] | 0.659 | 1.24 | 1.14 | 1.29 | 1.11 | 0.613 |
| CCACACUUCCAUCAAUCGGUC [Fam1B.1 aminoacylation ribozyme variant] | 0.715 | 0.683 | 0.561 | 0.732 | 0.593 | 0.586 |
| CCACACUUCCUGCAAUCGGUC [Fam1B.1 aminoacylation ribozyme variant] | 0.777 | 1.04 | 0.859 | 1.19 | 1.11 | 0.961 |
| CCACACUUCGACCAAUCGGUC [Fam1B.1 aminoacylation ribozyme variant] | 1.42 | 1.31 | 1.74 | 1.85 | 1.22 | 1.41 |
| CCACACUUCGAGCAAUCCGUC [Fam1B.1 aminoacylation ribozyme variant] | 0.498 | 1.28 | 1.03 | 1.49 | 1.08 | 1.4 |
| CCACACUUCGAGCCAUCGGUC [Fam1B.1 aminoacylation ribozyme variant] | 1.27 | 1.84 | 1.27 | 1.87 | 1.58 | 1.02 |
| CCACACUUCGAGUAAUCGGUC [Fam1B.1 aminoacylation ribozyme variant] | 0.641 | 0.822 | 0.958 | 0.893 | 0.78 | 0.789 |
| CCACACUUCUAACAAUCGGUC [Fam1B.1 aminoacylation ribozyme variant] | 0.614 | 0.797 | 0.619 | 0.798 | 0.69 | 0.618 |
| CCACACUUCUAGCAAUAGGUC [Fam1B.1 aminoacylation ribozyme variant] | 0.978 | 0.629 | 0.554 | 0.666 | 0.53 | 0.429 |
| CCACACUUCUAGCAAUCGGAC [Fam1B.1 aminoacylation ribozyme variant] | 0.585 | 0.941 | 0.665 | 0.612 | 0.979 | 0.61 |
| CCACACUUCUAGCAAUCGGGC [Fam1B.1 aminoacylation ribozyme variant] | 4.87 | 2.09 | 1.08 | 1.64 | 1.21 | 1.7 |
| CCACACUUCUAGCAAUCGGUC [Fam1B.1 aminoacylation ribozyme variant] | 0.957 | 0.771 | 0.611 | 0.852 | 0.624 | 0.616 |
| CCACACUUCUAGCAAUUGGUC [Fam1B.1 aminoacylation ribozyme variant] | 0.539 | 0.611 | 0.638 | 0.687 | 0.636 | 0.401 |
| CCACACUUCUAGCACUCGGUC [Fam1B.1 aminoacylation ribozyme variant] | 0.649 | 0.819 | 0.748 | 0.783 | 0.702 | 0.913 |
| CCACACUUGAACCAAUCGGUC [Fam1B.1 aminoacylation ribozyme variant] | 0.969 | 0.804 | 0.673 | 0.819 | 0.635 | 0.742 |
| CCACACUUGAAGCUAUCGGUC [Fam1B.1 aminoacylation ribozyme variant] | 0.482 | 1.07 | 0.885 | 1.02 | 0.775 | 0.759 |
| CCACACUUUAAACAAUCGGUC [Fam1B.1 aminoacylation ribozyme variant] | 2.02 | 0.718 | 0.633 | 0.825 | 0.733 | 1.3 |
| CCACACUUUAAGCAAUAGGUC [Fam1B.1 aminoacylation ribozyme variant] | 1.07 | 0.619 | 0.592 | 0.683 | 0.578 | 0.444 |
| CCACACUUUAAGCAAUCGGUA [Fam1B.1 aminoacylation ribozyme variant] | 0.889 | 0.788 | 0.722 | 0.95 | 0.63 | 0.553 |
| CCACACUUUAAGCGAUCGGUC [Fam1B.1 aminoacylation ribozyme variant] | 0.891 | 1.13 | 1.16 | 1.11 | 1.25 | 1.03 |
| CCACAGAUCAAGCAAUCGGUC [Fam1B.1 aminoacylation ribozyme variant] | 2.39 | 1.01 | 0.576 | 0.824 | 0.81 | 1.61 |

| Sequence | self-aminoacylation (biotinyl-Phe-oxazolone) | self-aminoacylation (biotinyl-Ile-oxazolone) | self-aminoacylation (biotinyl-Met-oxazolone) | self-aminoacylation (biotinyl-Val-oxazolone) | self-aminoacylation (biotinyl-Leu-oxazolone) | self-aminoacylation (biotinyl-Trp-oxazolone) |
| --- | --- | --- | --- | --- | --- | --- |
| CCACAGUACAAGCAAUCGGUC [Fam1B.1 aminoacylation ribozyme variant] | 1.77 | 1.17 | 1.27 | 1.24 | 1.03 | 0.861 |
| CCACAGUUCAAGCAAUCGGUA [Fam1B.1 aminoacylation ribozyme variant] | 0.787 | 1.08 | 1.28 | 1.13 | 1.01 | 0.707 |
| CCACAGUUCAAGCAGUCGGUC [Fam1B.1 aminoacylation ribozyme variant] | 0.63 | 0.937 | 1.01 | 1.2 | 1.04 | 0.757 |
| CCACAGUUCACGCAAUCGGUC [Fam1B.1 aminoacylation ribozyme variant] | 3.2 | 1.45 | 1.51 | 1.86 | 1.73 | 2.1 |
| CCACAGUUCAUGCAAUCGGUC [Fam1B.1 aminoacylation ribozyme variant] | 0.779 | 1.1 | 0.972 | 1.12 | 1.16 | 0.884 |
| CCACAUUUCAAGCAACCGGUC [Fam1B.1 aminoacylation ribozyme variant] | 1.11 | 1.53 | 1.09 | 1.64 | 1.11 | 1.34 |
| CCACAUUUCAAGCAAUCGGGC [Fam1B.1 aminoacylation ribozyme variant] | 1.7 | 3.08 | 3.55 | 2.7 | 2.78 | 2.91 |
| CCACAUUUCAAGCAAUCGGUU [Fam1B.1 aminoacylation ribozyme variant] | 1.25 | 1.59 | 1.62 | 1.71 | 1.56 | 1.2 |
| CCACAUUUCUAGCAAUCGGUC [Fam1B.1 aminoacylation ribozyme variant] | 1.49 | 1.83 | 1.35 | 1.76 | 1.4 | 1.22 |
| CCACAUUUGAAGCAAUCGGUC [Fam1B.1 aminoacylation ribozyme variant] | 1.09 | 1.28 | 1.04 | 1.31 | 1.17 | 0.886 |
| CCACCCGUCAAGCAAUCGGUC [Fam1B.1 aminoacylation ribozyme variant] | 1.12 | 1.24 | 1.2 | 1.44 | 1.12 | 1.08 |
| CCACCCUACAAGCAAUCGGUC [Fam1B.1 aminoacylation ribozyme variant] | 0.931 | 1.36 | 1.3 | 1.17 | 1.19 | 1.16 |
| CCACCCUUCAAACAAUCGGUC [Fam1B.1 aminoacylation ribozyme variant] | 81.3 | 1.39 | 1.43 | 1.86 | 2.18 | 38.9 |
| CCACCCUUCAAGCAAUAGGUC [Fam1B.1 aminoacylation ribozyme variant] | 0.807 | 0.645 | 0.575 | 0.711 | 0.529 | 0.452 |
| CCACCCUUCAAGCAAUCAGUC [Fam1B.1 aminoacylation ribozyme variant] | 5.72 | 0.736 | 0.672 | 0.828 | 0.775 | 1.94 |
| CCACCCUUCAAGCAAUCGGAC [Fam1B.1 aminoacylation ribozyme variant] | 0.866 | 1.04 | 0.991 | 1.31 | 0.712 | 0.664 |
| CCACCCUUCAAGCAAUCGUUC [Fam1B.1 aminoacylation ribozyme variant] | 0.85 | 0.888 | 0.584 | 0.89 | 0.611 | 0.742 |
| CCACCCUUCAAGCACUCGGUC [Fam1B.1 aminoacylation ribozyme variant] | 0.826 | 1.54 | 1.14 | 1.68 | 1.15 | 1.46 |
| CCACCCUUCAAGGAAUCGGUC [Fam1B.1 aminoacylation ribozyme variant] | 3.31 | 1.36 | 1.34 | 1.32 | 1.27 | 4 |
| CCACCCUUCAGGCAAUCGGUC [Fam1B.1 aminoacylation ribozyme variant] | 1.82 | 1.71 | 1.57 | 2.12 | 1.55 | 1.71 |
| CCACCCUUUAAGCAAUCGGUC [Fam1B.1 aminoacylation ribozyme variant] | 1.34 | 1.16 | 0.892 | 1.21 | 0.983 | 0.888 |
| CCACGCGUCAAGCAAUCGGUC [Fam1B.1 aminoacylation ribozyme variant] | 0.748 | 0.827 | 0.841 | 1.2 | 0.71 | 0.802 |
| CCACGCUUCAAGCAAACGGUC [Fam1B.1 aminoacylation ribozyme variant] | 0.644 | 0.647 | 0.457 | 0.665 | 0.477 | 0.544 |
| CCACGCUUCAAGCAAUCGGUG [Fam1B.1 aminoacylation ribozyme variant] | 5.52 | 2.49 | 3.73 | 2.41 | 5.09 | 4.43 |
| CCACGGUUCAAGCAAUCGGUC [Fam1B.1 aminoacylation ribozyme variant] | 2.64 | 1.08 | 1.02 | 1.22 | 1.07 | 2.21 |
